Measured values: US11230581B2, “Peptides and combination of peptides for use in immunotherapy against ovarian cancer and other cancers” (Immatics Biotechnologies GmbH, priority 2015, dated 2022)

molecular target: HLA-A*02:01 (Homo sapiens, UniProt P04439, D140Y/D185E/D98H/E176V/E277Q/G131W/G231S/I119V/I121R/I166T/I218V/L300P/L318F/N151K/N90K/P208A/P217A/Q86G/Q94H/R138H/R169H/T345S); assay: MHC binding assay (UV-ligand exchange, β2m ELISA, peptide exchange yield); settings: binding of HLA-class I restricted peptides to HLA-A*02:01, UV-ligand exchange
From the text: Candidate peptides for T cell based therapies according to the present invention were further tested for their MHC binding capacity (affinity). The individual peptide-MHC complexes were produced by UV-ligand exchange, where a UV-sensitive peptide is cleaved upon UV-irradiation, and exchanged with the peptide of interest as analyzed. Only peptide candidates that can effectively bind and stabilize the peptide-receptive MHC molecules prevent dissociation of the MHC complexes. To determine the yield of the exchange reaction, an ELISA was performed based on the detection of the light chain (β2m) of stabilized MHC complexes. The assay was performed as generally described in Rodenko et al. (Rodenko et al., 2006).
96 well MAXISorp plates (NUNC) were coated over night with 2 ug/ml streptavidin in PBS at room temperature, washed 4× and blocked for 1h at 37° C. in 2% BSA containing blocking buffer. […] Peptide-MHC monomers of the UV-exchange reaction were diluted 100 fold in blocking buffer. Samples were incubated for 1 h at 37° C., washed four times, incubated with 2 ug/ml HRP conjugated anti-β2m for 1h at 37° C., washed again and detected with TMB solution that is stopped with […]. Absorption was measured at 450 nm. Candidate peptides that show a high exchange yield (preferably higher than 50%, most preferred higher than 75%) are generally preferred for a generation and production of antibodies or fragments thereof, and/or T cell receptors or fragments thereof, as they show sufficient avidity to the MHC molecules and prevent dissociation of the MHC complexes.

Substance | Peptide exchange (MHC class I binding score, peptide exchange yield)
119 (FLYIGDIVSL; listed as Homo sapiens) [compound 119] | “++++” (≥75% = ++++)
120 (ALLGIPLTLV; listed as Homo sapiens) [compound 120] | “+++” (≥50 = +++)
121 (GVVDPRAISVL; listed as Homo sapiens) [compound 121] | “++” (≥20% = ++)
122 (FLLAEDDIYL; listed as Homo sapiens) [compound 122] | “+++” (≥50 = +++)
123 (NLWDLTDASVV; listed as Homo sapiens) [compound 123] | “+++” (≥50 = +++)
124 (ALYETELADA; listed as Homo sapiens) [compound 124] | “++” (≥20% = ++)
125 (VQIHQVAQV; listed as Homo sapiens) [compound 125] | “+++” (≥50 = +++)
126 (VLAYFLPEA; listed as Homo sapiens) [compound 126] | “++++” (≥75% = ++++)
127 (KIGDEPPKV; listed as Homo sapiens) [compound 127] | “++” (≥20% = ++)
128 (YLFDDPLSAV; listed as Homo sapiens) [compound 128] | “++” (≥20% = ++)
129 (GLLDGGVDILL; listed as Homo sapiens) [compound 129] | “+++” (≥50 = +++)
130 (FLWNGEDSALL; listed as Homo sapiens) [compound 130] | “+++” (≥50 = +++)
131 (FVPPVTVFPSL; listed as Homo sapiens) [compound 131] | “++” (≥20% = ++)
132 (LLVEQPPLAGV; listed as Homo sapiens) [compound 132] | “+++” (≥50 = +++)
133 (KVLSNIHTV; listed as Homo sapiens) [compound 133] | “++” (≥20% = ++)
134 (YLQELIFSV; listed as Homo sapiens) [compound 134] | “+++” (≥50 = +++)
135 (ALSEVDFQL; listed as Homo sapiens) [compound 135] | “+++” (≥50 = +++)

Substance | Peptide exchange (MHC class I binding score, peptide exchange yield)
136 (YLADPSNLFVV; listed as Homo sapiens) [compound 136] | “+++” (≥50 = +++)
137 (TLVLTLPTV; listed as Homo sapiens) [compound 137] | “++++” (≥75% = ++++)
138 (YQYPRAILSV; listed as Homo sapiens) [compound 138] | “+++” (≥50 = +++)
139 (SVMEVNSGIYRV; listed as Homo sapiens) [compound 139] | “+++” (≥50 = +++)
140 (YMDAPKAAL; listed as Homo sapiens) [compound 140] | “++” (≥20% = ++)
141 (YLDFSNNRL; listed as Homo sapiens) [compound 141] | “++” (≥20% = ++)
142 (FLFATPVFI; listed as Homo sapiens) [compound 142] | “+++” (≥50 = +++)
143 (LLLDITPEI; listed as Homo sapiens) [compound 143] | “++++” (≥75% = ++++)
144 (YIMEPSIFNTL; listed as Homo sapiens) [compound 144] | “+++” (≥50 = +++)
145 (FLATSGTLAGI; listed as Homo sapiens) [compound 145] | “++” (≥20% = ++)
146 (SLATAGDGLIEL; listed as Homo sapiens) [compound 146] | “++” (≥20% = ++)
147 (SLLEAVSFL; listed as Homo sapiens) [compound 147] | “+++” (≥50 = +++)
148 (ALNPEIVSV; listed as Homo sapiens) [compound 148] | “++” (≥20% = ++)
149 (NLLELFVQL; listed as Homo sapiens) [compound 149] | “+++” (≥50 = +++)
150 (RLWEEGEELEL; listed as Homo sapiens) [compound 150] | “+++” (≥50 = +++)
151 (KILQQLVTL; listed as Homo sapiens) [compound 151] | “+++” (≥50 = +++)

Next, values leading:

Peptide exchange (MHC class I binding score, peptide exchange yield) | Substance
“+++” (≥50 = +++) | 152 (ILFEDIFDV; listed as Homo sapiens) [compound 152]
“+” (≥10% = +) | 153 (FLIANVLYL; listed as Homo sapiens) [compound 153]
“++” (≥20% = ++) | 154 (ALDDGTPAL; listed as Homo sapiens) [compound 154]
“+++” (≥50 = +++) | 155 (RVANLHFPSV; listed as Homo sapiens) [compound 155]
“++” (≥20% = ++) | 157 (SLNDEVPEV; listed as Homo sapiens) [compound 157]
“+++” (≥50 = +++) | 158 (KLFDVDEDGYI; listed as Homo sapiens) [compound 158]
“++++” (≥75% = ++++) | 159 (GLVGNPLPSV; listed as Homo sapiens) [compound 159]
“+++” (≥50 = +++) | 160 (FLFDEEIEQI; listed as Homo sapiens) [compound 160]
“+++” (≥50 = +++) | 161 (ALLEGVNTV; listed as Homo sapiens) [compound 161]
“+++” (≥50 = +++) | 162 (YQQAQVPSV; listed as Homo sapiens) [compound 162]
“+++” (≥50 = +++) | 163 (ALDEMGDLLQL; listed as Homo sapiens) [compound 163]
“+++” (≥50 = +++) | 164 (ALLPQPKNLTV; listed as Homo sapiens) [compound 164]
“+++” (≥50 = +++) | 165 (SLLDEIRAV; listed as Homo sapiens) [compound 165]
“+++” (≥50 = +++) | 166 (YLNHLEPPV; listed as Homo sapiens) [compound 166]
“+++” (≥50 = +++) | 167 (KVLEVTEEFGV; listed as Homo sapiens) [compound 167]
“++++” (≥75% = ++++) | 168 (KILDADIQL; listed as Homo sapiens) [compound 168]
“+++” (≥50 = +++) | 169 (NLPEYLPFV; listed as Homo sapiens) [compound 169]
“+++” (≥50 = +++) | 170 (RLQETLSAA; listed as Homo sapiens) [compound 170]
“+++” (≥50 = +++) | 171 (LLLPLQILL; listed as Homo sapiens) [compound 171]
“++” (≥20% = ++) | 172 (VLYSYTIITV; listed as Homo sapiens) [compound 172]
“+++” (≥50 = +++) | 173 (LLDSASAGLYL; listed as Homo sapiens) [compound 173]
“+++” (≥50 = +++) | 174 (ALAQYLITA; listed as Homo sapiens) [compound 174]
“+++” (≥50 = +++) | 175 (YLFENISQL; listed as Homo sapiens) [compound 175]
“++” (≥20% = ++) | 176 (YLMEGSYNKVFL; listed as Homo sapiens) [compound 176]
“++++” (≥75% = ++++) | 177 (YLLPEEYTSTL; listed as Homo sapiens) [compound 177]
“++++” (≥75% = ++++) | 178 (ALTEIAFVV; listed as Homo sapiens) [compound 178]
“+++” (≥50 = +++) | 179 (KVLNELYTV; listed as Homo sapiens) [compound 179]
“++” (≥20% = ++) | 180 (FQIDPHSGLVTV; listed as Homo sapiens) [compound 180]
